Laboratory results taken from article PMC4323794.
Where two headings read alike, the source gives them in different places.

What was measured:
[1] = biological target: GpIbα‐Fc fusion protein; assay: ELISA
[2] = biological target: GpIbα‐Fc fusion protein; assay: SPR
[3] = biological target: ΔD′D3‐VWF lacking the NFP (ΔD′D3NFP‾‐VWF) (human) (UniProt P04275); assay: ELISA
[4] = biological target: Dimeric full‐length VWF (ΔPro‐VWF) (human) (UniProt P04275); assay: ELISA
[5] = biological target: ΔD′D3‐VWF lacking the NFP (ΔD′D3NFP‾‐VWF) (human) (UniProt P04275); assay: ELISA; remark: listed apart in the source
[6] = biological target: ΔD′D3‐VWF with Ala mutations replacing Thr/Ser (ΔD′D3OG‾‐VWF) (human) (UniProt P04275); assay: ELISA

Kd [1] | Kd [2] | Substance | other results
102 nM | – | Dimeric full‐length VWF (ΔPro‐VWF) (from UniProt P04275 764-2813) (natural protein) | –
2.4 nM | – | ΔD′D3‐VWF with Ala mutations replacing Thr/Ser (ΔD′D3OG‾‐VWF) (from UniProt P04275 1243-2813) (domain or fragment) | –

The remaining lines, values behind:

Substance | Kd [1] | Kd [2] | other results
D′D3‐A1 (from UniProt P04275 764-1480) (domain or fragment) | – | 1700 nM | –
GpIbα‐Fc fusion protein | – | – | Kd [3]: 7.5 nM; Kd [4]: 15 nM; Kd [5]: 7 nM; Kd [6]: 5 nM
VWF‐A1 (monomeric A1 domain with the N‐terminal flanking peptide) (from UniProt P04275 1243-1480) (domain or fragment) | – | 1200 nM | –
ΔD′D3‐VWF lacking the NFP (ΔD′D3NFP‾‐VWF) (from UniProt P04275 1267-2813) (domain or fragment) | 0.7 nM | – | –
